Results published in paper PMC5045167, “STN1 OB Fold Mutation Alters DNA Binding and Affects Selective Aspects of CST Function”.

Columns and labels:
CST(WT) (CTC1-STN1-TEN1) [1] = target: T1, CST(WT) (CTC1-STN1-TEN1) (human, UniProt Q2NKJ3;Q9H668;Q86WV5 1-1217;1-368;1-123); assay: filter binding; Kd,app measured, value only in Fig 6C; 25 mM Tris pH 8.0, 1 mM DTT, 150 mM NaCl; EMSA 0.1 nM DNA, 30 min RT; filter binding 0.01 nM DNA, 18 h 4 C; crosslinking 20 nM CST, 2 nM DNA, UVA on ice; conditions: protein: recombinant; tags: N-terminal FLAG-CTC1, His-STN1; TEN1 untagged (Methods says all tags N-terminal); copies: 1;1;1; label: 32P
T1 sequence (Q2NKJ3 whole entry, chain 1 of 3): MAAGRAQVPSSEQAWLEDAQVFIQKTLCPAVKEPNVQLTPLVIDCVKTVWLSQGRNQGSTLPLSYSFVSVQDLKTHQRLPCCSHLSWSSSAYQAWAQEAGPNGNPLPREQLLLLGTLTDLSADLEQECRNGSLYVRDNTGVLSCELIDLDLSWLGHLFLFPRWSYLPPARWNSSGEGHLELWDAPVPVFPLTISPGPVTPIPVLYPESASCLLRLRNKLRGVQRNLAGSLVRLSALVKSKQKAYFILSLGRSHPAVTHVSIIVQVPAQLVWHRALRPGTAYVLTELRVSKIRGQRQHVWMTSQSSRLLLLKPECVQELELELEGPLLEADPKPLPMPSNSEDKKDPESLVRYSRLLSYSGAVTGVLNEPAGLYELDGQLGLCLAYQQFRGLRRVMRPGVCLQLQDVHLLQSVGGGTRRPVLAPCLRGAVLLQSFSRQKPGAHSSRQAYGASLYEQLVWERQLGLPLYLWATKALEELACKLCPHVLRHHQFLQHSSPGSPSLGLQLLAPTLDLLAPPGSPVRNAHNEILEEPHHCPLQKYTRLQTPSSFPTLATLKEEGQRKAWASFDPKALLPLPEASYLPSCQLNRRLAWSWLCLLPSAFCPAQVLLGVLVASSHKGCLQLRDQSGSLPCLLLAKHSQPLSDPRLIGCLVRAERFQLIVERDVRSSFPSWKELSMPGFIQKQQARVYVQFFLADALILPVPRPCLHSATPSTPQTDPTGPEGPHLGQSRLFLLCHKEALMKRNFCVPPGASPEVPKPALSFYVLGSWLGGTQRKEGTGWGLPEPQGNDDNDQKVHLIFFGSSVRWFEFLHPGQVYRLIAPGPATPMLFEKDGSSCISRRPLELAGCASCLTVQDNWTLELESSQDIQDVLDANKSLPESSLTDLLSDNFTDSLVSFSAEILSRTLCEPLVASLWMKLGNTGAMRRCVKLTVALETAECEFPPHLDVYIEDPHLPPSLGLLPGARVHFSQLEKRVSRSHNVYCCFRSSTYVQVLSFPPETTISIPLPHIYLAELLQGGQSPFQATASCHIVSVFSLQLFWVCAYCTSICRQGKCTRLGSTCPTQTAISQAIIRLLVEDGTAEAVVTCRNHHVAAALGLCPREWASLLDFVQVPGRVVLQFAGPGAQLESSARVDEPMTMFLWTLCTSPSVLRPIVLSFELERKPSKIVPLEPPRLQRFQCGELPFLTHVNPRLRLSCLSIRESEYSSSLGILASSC
T1 sequence (Q9H668 whole entry, chain 2 of 3): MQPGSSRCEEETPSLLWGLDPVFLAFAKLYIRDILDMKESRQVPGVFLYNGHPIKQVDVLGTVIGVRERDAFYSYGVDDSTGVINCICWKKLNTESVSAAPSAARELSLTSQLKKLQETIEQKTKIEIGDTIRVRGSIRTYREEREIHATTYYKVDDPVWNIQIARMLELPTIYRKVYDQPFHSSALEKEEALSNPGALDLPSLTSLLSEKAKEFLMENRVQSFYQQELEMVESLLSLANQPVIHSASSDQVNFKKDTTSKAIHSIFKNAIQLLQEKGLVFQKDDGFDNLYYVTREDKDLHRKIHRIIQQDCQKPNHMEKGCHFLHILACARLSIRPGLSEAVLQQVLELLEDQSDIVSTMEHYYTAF
T1 sequence (Q86WV5 whole entry, chain 3 of 3): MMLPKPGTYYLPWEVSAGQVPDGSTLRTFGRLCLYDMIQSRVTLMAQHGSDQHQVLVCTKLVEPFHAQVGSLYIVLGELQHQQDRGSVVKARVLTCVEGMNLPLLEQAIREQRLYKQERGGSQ

CST(WT) (CTC1-STN1-TEN1) [2] = target: T1, CST(WT) (CTC1-STN1-TEN1); assay: EMSA; 25 mM Tris pH 8.0, 1 mM DTT, 150 mM NaCl; EMSA 0.1 nM DNA, 30 min RT; filter binding 0.01 nM DNA, 18 h 4 C; crosslinking 20 nM CST, 2 nM DNA, UVA on ice; conditions: protein: recombinant; tags: N-terminal FLAG-CTC1, His-STN1; TEN1 untagged (Methods says all tags N-terminal); copies: 1;1;1; label: 32P
CST(STN1-OBM) [3] = target: T2, CST(STN1-OBM) (human, UniProt Q2NKJ3;Q9H668;Q86WV5 1-1217;1-368;1-123, W89A;R139L;Y141A); assay: EMSA; similar affinity to CST(WT); 25 mM Tris pH 8.0, 1 mM DTT, 150 mM NaCl; EMSA 0.1 nM DNA, 30 min RT; filter binding 0.01 nM DNA, 18 h 4 C; crosslinking 20 nM CST, 2 nM DNA, UVA on ice; conditions: protein: recombinant; tags: N-terminal FLAG-CTC1, His-STN1-OBM; TEN1 untagged; copies: 1;1;1; label: 32P
T2 sequence (Q2NKJ3 whole entry, chain 1 of 3): as the sequence (Q2NKJ3 whole entry, chain 1 of 3) above
T2 sequence (Q9H668 whole entry W89A/R139L/Y141A, chain 2 of 3): as the sequence (Q9H668 whole entry, chain 2 of 3) above, with W89A, R139L, Y141A counted along it
T2 sequence (Q86WV5 whole entry, chain 3 of 3): as the sequence (Q86WV5 whole entry, chain 3 of 3) above

CST(WT) (CTC1-STN1-TEN1) [4] = target: T1, CST(WT) (CTC1-STN1-TEN1); assay: EMSA; up to 20 nM CST; 25 mM Tris pH 8.0, 1 mM DTT, 150 mM NaCl; EMSA 0.1 nM DNA, 30 min RT; filter binding 0.01 nM DNA, 18 h 4 C; crosslinking 20 nM CST, 2 nM DNA, UVA on ice; conditions: protein: recombinant; tags: N-terminal FLAG-CTC1, His-STN1; TEN1 untagged (Methods says all tags N-terminal); copies: 1;1;1; label: 32P
CST(STN1-OBM) [5] = target: T2, CST(STN1-OBM); assay: as above; conditions: protein: recombinant; tags: N-terminal FLAG-CTC1, His-STN1-OBM; TEN1 untagged; copies: 1;1;1; label: 32P
CST(WT) (CTC1-STN1-TEN1) [6] = target: T1, CST(WT) (CTC1-STN1-TEN1); assay: UV crosslinking; CTC1 and (less efficiently) STN1 crosslinked; 25 mM Tris pH 8.0, 1 mM DTT, 150 mM NaCl; EMSA 0.1 nM DNA, 30 min RT; filter binding 0.01 nM DNA, 18 h 4 C; crosslinking 20 nM CST, 2 nM DNA, UVA on ice; conditions: protein: recombinant; tags: N-terminal FLAG-CTC1, His-STN1; TEN1 untagged (Methods says all tags N-terminal); copies: 1;1;1; label: 32P
CST(WT) (CTC1-STN1-TEN1) [7] = target: T1, CST(WT) (CTC1-STN1-TEN1); assay: UV crosslinking; CTC1 and STN1 crosslinked; 25 mM Tris pH 8.0, 1 mM DTT, 150 mM NaCl; EMSA 0.1 nM DNA, 30 min RT; filter binding 0.01 nM DNA, 18 h 4 C; crosslinking 20 nM CST, 2 nM DNA, UVA on ice; conditions: protein: recombinant; tags: N-terminal FLAG-CTC1, His-STN1; TEN1 untagged (Methods says all tags N-terminal); copies: 1;1;1; label: 32P
CST(WT) (CTC1-STN1-TEN1) [8] = target: T1, CST(WT) (CTC1-STN1-TEN1); assay: UV crosslinking; only CTC1 reproducibly crosslinked; 25 mM Tris pH 8.0, 1 mM DTT, 150 mM NaCl; EMSA 0.1 nM DNA, 30 min RT; filter binding 0.01 nM DNA, 18 h 4 C; crosslinking 20 nM CST, 2 nM DNA, UVA on ice; conditions: protein: recombinant; tags: N-terminal FLAG-CTC1, His-STN1; TEN1 untagged (Methods says all tags N-terminal); copies: 1;1;1; label: 32P
CST(WT) (CTC1-STN1-TEN1) [9] = target: T1, CST(WT) (CTC1-STN1-TEN1); assay: UV crosslinking; CTC1, STN1 and TEN1 crosslinked; 25 mM Tris pH 8.0, 1 mM DTT, 150 mM NaCl; EMSA 0.1 nM DNA, 30 min RT; filter binding 0.01 nM DNA, 18 h 4 C; crosslinking 20 nM CST, 2 nM DNA, UVA on ice; conditions: protein: recombinant; tags: N-terminal FLAG-CTC1, His-STN1; TEN1 untagged (Methods says all tags N-terminal); copies: 1;1;1; label: 32P

GGTTAGGGTTAGGGTTAG (ssDNA) [TelG-18]: binds (CST(WT) (CTC1-STN1-TEN1) [1]).

GGTTAGGGTTAGGGTTAGGGTTAGGGTTAGGGTTAGGGTTAGGGTTAG (ssDNA) [TelG-48]: binds (CST(WT) (CTC1-STN1-TEN1) [2]); binds (CST(STN1-OBM) [3]).

AGCGTATCCGTTCAGTTGAGCGTATCCGTTCAGTTGAGCGTATCCGTT (ssDNA) [NonTel-48]: binds (CST(WT) (CTC1-STN1-TEN1) [2]); binds (CST(STN1-OBM) [3]).

AGCGTATCCGTTCAGTTGAGCGTATCCGTTCAGTTG (ssDNA) [NonTel-36]: binds (CST(WT) (CTC1-STN1-TEN1) [2]).

AGCGTATCCGTTCAGTTG (ssDNA) [NonTel-18]: no binding (CST(WT) (CTC1-STN1-TEN1) [4]); no binding (CST(STN1-OBM) [5]).

GGTTAGGGTTAGGGTTAG (ssDNA, 4-thiothymidine at position 3 (third nt from 5' end)) [5'-s4T TelG-18]: binds (CST(WT) (CTC1-STN1-TEN1) [6]).

GGTTAGGGTTAGGGTTAG (ssDNA, 4-thiothymidine at position 16 (third nt from 3' end)) [3'-s4T TelG-18]: binds (CST(WT) (CTC1-STN1-TEN1) [7]).

GGTTAGGGTTAGGGTTAGGGTTAGGGTTAGGGTTAGGGTTAGGGTTAG (ssDNA, 4-thiothymidine at position 3 (third nt from 5' end)) [5'-s4T TelG-48]: binds (CST(WT) (CTC1-STN1-TEN1) [8]).

GGTTAGGGTTAGGGTTAGGGTTAGGGTTAGGGTTAGGGTTAGGGTTAG (ssDNA, 4-thiothymidine at position 46 (third nt from 3' end)) [3'-s4T TelG-48]: binds (CST(WT) (CTC1-STN1-TEN1) [9]).
